Data reported in US20250228937A1, “MEDICAMENT FOR TREATMENT AND/OR PREVENTION OF CANCER” (TORAY INDUSTRIES, INC., priority 2021, published 2025).
Substitutions are numbered along the chain they refer to.

B1: anti-CAPRIN-1 antibody (o) (antibody, V domains shown)
VH: EVQLHQFGAELVKPGASVKISCKASGYTFTDYNMDWVKQSHGKSLEWIGDINPNYDSTSYNQKFKGKATLTVDKSSSTAYMELRSLTSEDTAVYYCARSRSYDYEGFAYWGQGTLVTVSA
VL: DIQMTQSPASLSASVGETVTITCRASGNIHNYLAWYQQKQGKSPQLLVYNAKTLADGVPSRFSGSGSGTQYSLKINSLQPEDFGSYYCQHFWSTLTFGAGTKLELKR
B2: anti-CAPRIN-1 antibody (z) (antibody, V domains shown)
VH: GPDLVKPGASVKISCKASGYSFTAYYMHWVKQSHGKSLEWIGRVNPNNGGTTYNQKFKGKAILTVDKSSSTAYMELRSLTFEDSAVYYCARRIYYGYFDYWGQGTTVTVSS
VL: AFFAVSLGQRATISCKASQSVDYDGDSYMNWYQQKPGQPPKLLIYVASNLESGVPARFSGSGSGTDFTLNIHPVEEEDAATYYCQQSNEDPYTFGGGTKLEIKQ
B3: anti-CAPRIN-1 antibody (a) (antibody, V domains shown)
VH: AVTLDESGGGLQMSRGGLSLVCKASGFDFSSYQMNWIRQAPGKGLEFVAAINKFGNSTGHGAAVKGRVTISRDNGQSTVRLQLNNLRAEDTAIYFCTKHAYGYCGSGTWCAAGEIDAWGHGTEVIVSS
VL: QAASTQPSSVSANPGETVEITCSGGGSYSYGWFQQKSPGSAPVTVIYYNNKRPSDIPSRFSGSKSGSTGTLTITGVQADDEAVYYCGSGDSTDTAVFGAGTTLTVLG
B4: anti-CAPRIN-1 antibody (j) (antibody, V domains shown)
VH: DAELVKPGASVKISCKASGYTFTDHSIHWVQQKPEQGLEWIGYISPGNGNIKYNEKFKGKATLTADKSSSTAYMQLNSLTSEDSAVYFCKRSLGRGGPYYFDYWGQGTTVTVSS
VL: DIVLTQAAPSLPVTPGESVSISCRSSKSLLHSNGNTYLYWFLQRPGQSPQLLIYRMSNLASGVPDRFSGSGSGTAFTLRISRVEAEDVGVYYCMQHREYPVTFGSGPN
B5: anti-CAPRIN-1 antibody (c) (antibody, V domains shown)
VH: AVTLDESGGGLQTPGGGLSLVCKASGFTFSSFDMGWVRQAPGKGLEFVAQINDAGSRTWYATAVKGRATISRDNGQTTVRLQLNNLRAEDTGTYYCTRGSGYVGAGAIDAWGHGTEVIVS
VL: AALTQPSSVSANPGETVKITCSGGSGYYGWYQQQKSPGSAPVTVIYQNDKRPSDIPSRFSGSGSGSTNTLTITGVQAEDEAVYFCGRYDSTDSGIFGAGTTLTVL
B6: anti-CAPRIN-1 antibody (d) (antibody, V domains shown)
VH: QSLEESGGDLVKPGASLTLTCTASGFSFSGSYYMSWVRQAPGKGLEWIAYIYIGDGVTAYANWAKGRFTISKASSTTVTLQMTSLTAADTATYFCARGNKLWGPGTLVTVSS
VL: DVVMTQTPASVEAAVGGTVTIKCQASQSISSYLAWYQQKPGQPPKRLIYDASNLDSGVPSRFKGSGSGTDFTITISDLECADAATYYCQCTAVSSATIYGNAFGGGTEVVVK
B7: anti-CAPRIN-1 antibody (af) (antibody, V domains shown)
VH: EVQLVESGGGLVQPGGSLRLSCAASGFSLSSHSLGWVRQAPGKGLEWIGDIRSGGSAYYANWAKGRFTISRDNSKNTLYLQMNSLRAEDTAVYYCTRTNGPSDLTNRLDLWGQGTLVTVSS
VL: QVLTQSPSSLSASVGDRVTINCQASQSLYNNENLAWFQQKPGKVPKRLIYGASTLASGVSSRFSGSGSGTEFTLTISSLQCEDFAIYYCLGEFSCGSADCFAFGGGTKVEIK
B8: anti-CAPRIN-1 antibody (ah) (antibody, V domains shown)
VH: B7 VH
VL: EQVLTQSPSSLSASVGDRVTINCQASQSLYNNENLAWFQQKPGKVPKRLIYGASTLASGVSSRFSGSGSGTEFTLTISNLQPEDFAIYYCLGEFSCGSADCFAFGGGTKVEIK
B9: anti-CAPRIN-1 antibody (b) (antibody, V domains shown)
VH: B7 VH with V2Q, Q3S
VL: B7 VL
B10: anti-CAPRIN-1 antibody (aj) (antibody, V domains shown)
VH: B7 VH
VL: B8 VL with Q2I, I87T
B11: anti-CAPRIN-1 antibody (ag) (antibody, V domains shown)
VH: B7 VH with Y94F
VL: B7 VL
B12: anti-CAPRIN-1 antibody (ai) (antibody, V domains shown)
VH: B7 VH with Y94F
VL: B8 VL with Q2I, I87T
B13: anti-CAPRIN-1 antibody (ak) (antibody, V domains shown)
VH: B7 VH with Y94F
VL: B8 VL
B14: anti-CAPRIN-1 antibody (i) (antibody, V domains shown)
VH: GAELVRSGASVKMSCKASGYSFTDYNMYWVKQTPGQGLEWIGYIYPGNGGTNYNQKFKGKATLTADTSSSTAYMQISSLTSEDSAVYFCARDYDDGGYAMDYWGQGTTVTVSS
VL: DIQMTQSPASLSASVGETVTITCRASGNIHNYLTWYQQKQGKSPQLLVYNAKTLADGVPSRFSGSGSGTQYSLKINRLQPEDFGSYYCQHFWNIPWTFGGGTKLNSR
B15: anti-CAPRIN-1 antibody (e) (antibody, V domains shown)
VH: AVTLDESGGGLQTPGGALSLVCKASGFTFSGYDMLWVRQAPGKGLEWVAGIGSTGGGTDYGAAVKGRATISRDNGQSTVRLQLNNLRAEDTATYYCAKVAGGCNSGYCRDSPGSIDAWGHGTEVIVS
VL: AVTQQPASVSANPGETVKITCSGGGSRNYYGWYQQKSPGSVPVTVIYYDDQRPSNIPSRFSGALSGSTSTLTITGVQADDEAVYFCGSADSNTYEGSFGAGTTLTVL

Biological target: T1, human CAPRIN-1 protein expressed on cell membrane surfaces of human cancer cells (human, UniProt Q14444 2-709)
T1 construct: whole, on cells; only a portion of CAPRIN-1 is said to be on the membrane surface
T1 sequence (looked up): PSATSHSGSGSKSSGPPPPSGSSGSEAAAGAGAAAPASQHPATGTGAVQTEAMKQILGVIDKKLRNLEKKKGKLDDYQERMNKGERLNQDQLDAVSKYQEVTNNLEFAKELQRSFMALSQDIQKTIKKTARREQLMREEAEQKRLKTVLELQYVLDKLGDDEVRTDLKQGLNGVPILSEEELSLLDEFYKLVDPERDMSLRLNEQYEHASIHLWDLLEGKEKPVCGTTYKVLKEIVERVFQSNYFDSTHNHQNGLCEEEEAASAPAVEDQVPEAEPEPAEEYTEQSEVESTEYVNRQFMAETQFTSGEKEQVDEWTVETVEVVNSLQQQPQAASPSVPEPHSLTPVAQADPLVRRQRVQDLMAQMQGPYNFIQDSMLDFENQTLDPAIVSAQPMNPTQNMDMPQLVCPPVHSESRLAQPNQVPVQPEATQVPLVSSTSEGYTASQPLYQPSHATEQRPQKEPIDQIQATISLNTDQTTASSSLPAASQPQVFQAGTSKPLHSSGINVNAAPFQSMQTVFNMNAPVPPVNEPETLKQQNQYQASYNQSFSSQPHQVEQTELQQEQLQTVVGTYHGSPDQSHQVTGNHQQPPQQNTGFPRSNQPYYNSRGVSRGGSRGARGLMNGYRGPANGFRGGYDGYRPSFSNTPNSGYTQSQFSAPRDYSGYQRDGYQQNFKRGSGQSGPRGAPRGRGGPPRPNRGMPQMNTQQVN
Test: flow cytometry on cancer cells expressing CAPRIN-1

Binding result, binds:
B1
B2
B3
B4
B5
B6
B7
B8
B9
B10
B11
B12
B13
B14
B15
